Source: article PMC6914384 (Nature, 2018)
No end group written: not given here.

Key:
[1] = target: T1, p300 BPΔR module (BRP 1048-1282 with the RING domain 1169-1241 replaced by a single glycine) (UniProt Q09472); test: crystal structure
T1 chain: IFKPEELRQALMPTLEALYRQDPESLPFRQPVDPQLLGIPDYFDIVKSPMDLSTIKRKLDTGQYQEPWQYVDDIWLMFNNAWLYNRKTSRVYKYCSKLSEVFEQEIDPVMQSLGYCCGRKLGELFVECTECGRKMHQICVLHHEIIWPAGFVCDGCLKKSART

[2] = target: T2, p300 BRP module (bromodomain-RING-PHD), residues 1048-1282 (UniProt Q09472 1048-1282); test: ITC
T2 sequence: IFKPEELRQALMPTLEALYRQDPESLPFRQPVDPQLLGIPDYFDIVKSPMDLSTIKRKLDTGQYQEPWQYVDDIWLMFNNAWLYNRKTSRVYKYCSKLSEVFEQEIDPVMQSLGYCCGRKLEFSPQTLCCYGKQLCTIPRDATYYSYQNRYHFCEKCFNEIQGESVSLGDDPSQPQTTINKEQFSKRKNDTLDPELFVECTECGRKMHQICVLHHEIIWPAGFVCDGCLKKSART

GLGK(Ac)GGAK(Ac)RHR [11-mer histone peptide H4 (10-20) with acetylated K12 and K16]: binds [1].

For ARTKQTQRKSTGGK(Ac)APRKQL [H3 K14ac (1-20) peptide], the Kd [2] was 1760 µM and the “stoichiometry N” value [2] was 1.13.

ARTKQTQRK(Ac)STGGK(Ac)APRKQL [H3 K9acK14ac (1-20) peptide] was tested, and the Kd [2] was 578 µM and the “stoichiometry N” value [2] was 1.06.
